# T1: DLG3_3, Q92796
# T1 sequence (Q92796 374-475, limits assumed, looked up): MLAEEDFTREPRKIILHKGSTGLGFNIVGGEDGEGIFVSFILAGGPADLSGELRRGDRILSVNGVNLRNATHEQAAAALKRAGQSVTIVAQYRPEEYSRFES
# T2: APBA1_2, Q02410
# T2 sequence (Q02410 742-832, limits assumed, looked up): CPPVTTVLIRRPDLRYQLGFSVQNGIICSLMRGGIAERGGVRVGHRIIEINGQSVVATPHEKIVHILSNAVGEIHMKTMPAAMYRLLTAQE
# T3: PDZD2_2, O15018
# T3 sequence (O15018 329-429, limits assumed, looked up): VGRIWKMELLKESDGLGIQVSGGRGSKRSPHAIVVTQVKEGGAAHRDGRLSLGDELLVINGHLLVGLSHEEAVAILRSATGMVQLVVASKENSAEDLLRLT
# T4: SNTG2, Q9NY99
# T4 sequence (Q9NY99 68-166, limits assumed, looked up): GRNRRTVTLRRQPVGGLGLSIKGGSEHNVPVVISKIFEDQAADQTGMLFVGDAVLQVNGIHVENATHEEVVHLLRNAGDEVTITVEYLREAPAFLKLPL
# T5: LIN7B, Q9HAP6
# T5 sequence (Q9HAP6 88-185, limits assumed, looked up): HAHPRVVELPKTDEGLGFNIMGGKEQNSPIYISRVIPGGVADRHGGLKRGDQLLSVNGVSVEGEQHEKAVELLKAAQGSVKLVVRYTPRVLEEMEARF
# T6: NHERF3_4, Q5T2W1
# T6 sequence (Q5T2W1 373-468, limits assumed, looked up): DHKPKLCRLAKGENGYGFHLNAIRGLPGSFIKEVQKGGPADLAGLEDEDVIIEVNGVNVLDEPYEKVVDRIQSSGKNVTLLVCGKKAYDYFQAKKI
# T7: PTPN13_1, Q12923
# T7 sequence (Q12923 1088-1188, limits assumed, looked up): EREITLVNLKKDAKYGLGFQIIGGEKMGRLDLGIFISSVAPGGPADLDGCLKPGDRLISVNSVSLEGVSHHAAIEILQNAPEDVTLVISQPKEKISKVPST
# T8: GRIP1_4, Q9Y3R0
# T8 sequence (Q9Y3R0 467-571, limits assumed, looked up): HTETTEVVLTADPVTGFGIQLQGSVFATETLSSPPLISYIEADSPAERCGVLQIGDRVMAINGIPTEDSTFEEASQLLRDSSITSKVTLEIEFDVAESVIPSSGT
# T9: MPP2, Q14168
# T9 sequence (Q14168 180-250, limits assumed, looked up): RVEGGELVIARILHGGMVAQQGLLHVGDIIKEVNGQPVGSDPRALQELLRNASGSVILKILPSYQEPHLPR
# T10: GRIP1_7, Q9Y3R0
# T10 sequence (Q9Y3R0 999-1096, limits assumed, looked up): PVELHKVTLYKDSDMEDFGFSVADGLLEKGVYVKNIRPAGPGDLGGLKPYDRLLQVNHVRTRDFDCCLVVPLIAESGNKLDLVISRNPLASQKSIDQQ
# T11: MPDZ_12, O75970
# T11 sequence (O75970 1857-1958, limits assumed, looked up): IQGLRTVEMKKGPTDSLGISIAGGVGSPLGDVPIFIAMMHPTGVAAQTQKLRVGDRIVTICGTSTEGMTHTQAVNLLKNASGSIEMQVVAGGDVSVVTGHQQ
# B1: HTR2C, P28335 (peptide)
# chain: SVVSERISSV
# B2: RGS12, O14924 (peptide)
# chain: KTSAHHATFV
# B3: DGKZ, Q13574 (peptide)
# chain: IQREDQETAV
# B4: ARHGEF16, Q5VV41 (peptide)
# chain: MERLRVETDV
# Key:
# Test in all cases: holdup assay
# Set-up in all cases: key: below the threshold = too weak to quantify, mostly under pKd 3.1 to 4
# DLG3_3, Q92796 = biological target: T1, DLG3_3, Q92796
# APBA1_2, Q02410 = biological target: T2, APBA1_2, Q02410
# PDZD2_2, O15018 = biological target: T3, PDZD2_2, O15018
# FRMPD4, Q14CM0 = biological target: FRMPD4, Q14CM0
# SNTG2, Q9NY99 = biological target: T4, SNTG2, Q9NY99
# AHNAK1, Q09666 = biological target: AHNAK1, Q09666
# MAGI2_4, Q86UL8 = biological target: MAGI2_4, Q86UL8
# GRIP2_7, Q9C0E4 = biological target: GRIP2_7, Q9C0E4
# LIN7B, Q9HAP6 = biological target: T5, LIN7B, Q9HAP6
# DLG4_2, P78352 = biological target: DLG4_2, P78352
# NHERF3_4, Q5T2W1 = biological target: T6, NHERF3_4, Q5T2W1
# NOS1, P29475 = biological target: NOS1, P29475
# PTPN13_1, Q12923 = biological target: T7, PTPN13_1, Q12923
# GRIP1_4, Q9Y3R0 = biological target: T8, GRIP1_4, Q9Y3R0
# MPP2, Q14168 = biological target: T9, MPP2, Q14168
# FRMPD2_2, Q68DX3 = biological target: FRMPD2_2, Q68DX3
# GRID2IP_2, A4D2P6 = biological target: GRID2IP_2, A4D2P6
# LIMK2, P53671 = biological target: LIMK2, P53671
# NHERF4_2, Q86UT5 = biological target: NHERF4_2, Q86UT5
# FRMPD2_1, Q68DX3 = biological target: FRMPD2_1, Q68DX3
# DLG1_2, Q12959 = biological target: DLG1_2, Q12959
# LNX1_3, Q8TBB1 = biological target: LNX1_3, Q8TBB1
# SCRIB_3, Q14160 = biological target: SCRIB_3, Q14160
# GRIP1_7, Q9Y3R0 = biological target: T10, GRIP1_7, Q9Y3R0
# PARD3_3, Q8TEW0 = biological target: PARD3_3, Q8TEW0
# MPDZ_12, O75970 = biological target: T11, MPDZ_12, O75970
# MAGI2_6, Q86UL8 = biological target: MAGI2_6, Q86UL8
# [1] = plain residues with an end cap or a label only (N-terminal biotin on a linker: ado-ado)
# [2] = plain residues with an end cap or a label only (N-terminal biotin on a linker: ahx)
# [3] = plain residues with an end cap or a label only (N-terminal biotin on a linker: ttds)
# PARD3_3, Q8TEW0, sequence (Q8TEW0 582-685): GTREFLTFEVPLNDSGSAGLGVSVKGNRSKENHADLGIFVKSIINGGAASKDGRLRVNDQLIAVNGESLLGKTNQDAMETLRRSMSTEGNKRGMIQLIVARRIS
# FRMPD2_1, Q68DX3, sequence (Q68DX3 770-861): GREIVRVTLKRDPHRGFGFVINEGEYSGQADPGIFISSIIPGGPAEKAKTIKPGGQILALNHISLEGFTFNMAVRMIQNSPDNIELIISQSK
# DLG4_2, P78352, sequence (P78352 155-259): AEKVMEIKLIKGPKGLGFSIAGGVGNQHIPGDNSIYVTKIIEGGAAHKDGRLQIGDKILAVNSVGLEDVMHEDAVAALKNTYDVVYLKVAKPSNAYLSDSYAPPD
# LNX1_3, Q8TBB1, sequence (Q8TBB1 500-596): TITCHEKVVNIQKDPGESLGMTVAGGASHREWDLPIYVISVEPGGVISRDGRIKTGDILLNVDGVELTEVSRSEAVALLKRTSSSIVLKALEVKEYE
# MAGI2_6, Q86UL8, sequence (Q86UL8 1141-1229): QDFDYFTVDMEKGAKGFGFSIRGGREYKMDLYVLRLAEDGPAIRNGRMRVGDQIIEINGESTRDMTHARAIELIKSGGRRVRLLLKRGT
# LIMK2, P53671, sequence (P53671 143-248): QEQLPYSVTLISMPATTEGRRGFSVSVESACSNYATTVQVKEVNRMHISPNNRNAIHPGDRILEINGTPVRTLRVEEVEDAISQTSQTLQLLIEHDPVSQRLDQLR
# NHERF4_2, Q86UT5, sequence (Q86UT5 220-308): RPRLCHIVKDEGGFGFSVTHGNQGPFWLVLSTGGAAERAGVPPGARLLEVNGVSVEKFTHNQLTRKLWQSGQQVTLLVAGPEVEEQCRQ
# FRMPD4, Q14CM0, sequence (Q14CM0 67-160): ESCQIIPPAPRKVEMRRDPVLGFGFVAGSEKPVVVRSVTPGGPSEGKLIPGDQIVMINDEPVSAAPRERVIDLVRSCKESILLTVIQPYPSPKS
# FRMPD2_2, Q68DX3, sequence (Q68DX3 944-1038): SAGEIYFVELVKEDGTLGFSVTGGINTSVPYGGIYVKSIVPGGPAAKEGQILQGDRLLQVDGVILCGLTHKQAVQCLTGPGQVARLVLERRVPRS
# AHNAK1, Q09666, sequence (Q09666 4-100): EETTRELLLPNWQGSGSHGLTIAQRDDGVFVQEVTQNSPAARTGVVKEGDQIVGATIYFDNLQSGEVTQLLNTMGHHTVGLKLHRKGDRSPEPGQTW
# SCRIB_3, Q14160, sequence (Q14160 999-1103): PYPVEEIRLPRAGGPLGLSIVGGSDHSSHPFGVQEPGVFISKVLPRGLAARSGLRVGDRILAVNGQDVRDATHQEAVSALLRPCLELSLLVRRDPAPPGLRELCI
# MAGI2_4, Q86UL8, sequence (Q86UL8 772-865): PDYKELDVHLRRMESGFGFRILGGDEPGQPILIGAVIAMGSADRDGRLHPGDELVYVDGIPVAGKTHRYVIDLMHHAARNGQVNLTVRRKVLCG
# NOS1, P29475, sequence (P29475 9-101): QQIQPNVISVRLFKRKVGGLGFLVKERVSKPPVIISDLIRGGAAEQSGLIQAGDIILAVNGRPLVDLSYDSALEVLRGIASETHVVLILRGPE
# GRIP2_7, Q9C0E4, sequence (Q9C0E4 934-1023): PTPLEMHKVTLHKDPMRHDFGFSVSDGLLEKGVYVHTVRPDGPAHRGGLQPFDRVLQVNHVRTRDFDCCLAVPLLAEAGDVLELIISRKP
# DLG1_2, Q12959, sequence (Q12959 314-412): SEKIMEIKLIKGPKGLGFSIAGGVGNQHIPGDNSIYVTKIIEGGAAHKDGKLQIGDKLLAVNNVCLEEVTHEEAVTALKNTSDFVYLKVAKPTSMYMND
# GRID2IP_2, A4D2P6, sequence (A4D2P6 272-370): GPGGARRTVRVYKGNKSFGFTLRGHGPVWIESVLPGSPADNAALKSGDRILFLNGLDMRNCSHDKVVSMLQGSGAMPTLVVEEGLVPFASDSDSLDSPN
binder,measurement,setting,value
B1,pKd,"DLG3_3, Q92796; [1]",below the threshold
same,pKd,"APBA1_2, Q02410; [1]",3.87
same,pKd,"PDZD2_2, O15018; [1]",5.56
same,pKd,"FRMPD4, Q14CM0; [1]",below the threshold
same,pKd,"SNTG2, Q9NY99; [1]",below the threshold
same,pKd,"AHNAK1, Q09666; [1]",below the threshold
same,pKd,"MAGI2_4, Q86UL8; [1]",below the threshold
same,pKd,"GRIP2_7, Q9C0E4; [1]",below the threshold
same,pKd,"LIN7B, Q9HAP6; [1]",3.7
same,pKd,"DLG4_2, P78352; [1]",4.64
same,pKd,"NHERF3_4, Q5T2W1; [1]",below the threshold
same,pKd,"NOS1, P29475; [1]",3.58
same,pKd,"PTPN13_1, Q12923; [1]",below the threshold
same,pKd,"GRIP1_4, Q9Y3R0; [1]",below the threshold
same,pKd,"MPP2, Q14168; [1]",below the threshold
same,pKd,"FRMPD2_2, Q68DX3; [1]",4.25
same,pKd,"GRID2IP_2, A4D2P6; [1]",4.44
same,pKd,"LIMK2, P53671; [1]",below the threshold
same,pKd,"NHERF4_2, Q86UT5; [1]",below the threshold
same,pKd,"FRMPD2_1, Q68DX3; [1]",below the threshold
same,pKd,"DLG1_2, Q12959; [1]",4.74
same,pKd,"LNX1_3, Q8TBB1; [1]",below the threshold
same,pKd,"SCRIB_3, Q14160; [1]",3.71
same,pKd,"GRIP1_7, Q9Y3R0; [1]",below the threshold
same,pKd,"PARD3_3, Q8TEW0; [1]",below the threshold
same,pKd,"MPDZ_12, O75970; [1]",below the threshold
same,pKd,"MAGI2_6, Q86UL8; [1]",4.64
B2,pKd,"DLG3_3, Q92796; [2]",below the threshold
same,pKd,"APBA1_2, Q02410; [2]",4.87
same,pKd,"PDZD2_2, O15018; [2]",5.04
same,pKd,"FRMPD4, Q14CM0; [2]",below the threshold
same,pKd,"SNTG2, Q9NY99; [2]",below the threshold
same,pKd,"AHNAK1, Q09666; [2]",below the threshold
same,pKd,"MAGI2_4, Q86UL8; [2]",4.13
same,pKd,"GRIP2_7, Q9C0E4; [2]",3.72
same,pKd,"LIN7B, Q9HAP6; [2]",below the threshold
same,pKd,"DLG4_2, P78352; [2]",4.13
same,pKd,"NHERF3_4, Q5T2W1; [2]",below the threshold
same,pKd,"NOS1, P29475; [2]",3.66
same,pKd,"PTPN13_1, Q12923; [2]",below the threshold
same,pKd,"GRIP1_4, Q9Y3R0; [2]",below the threshold
same,pKd,"MPP2, Q14168; [2]",below the threshold
same,pKd,"FRMPD2_2, Q68DX3; [2]",4.72
same,pKd,"GRID2IP_2, A4D2P6; [2]",4.27
same,pKd,"LIMK2, P53671; [2]",below the threshold
same,pKd,"NHERF4_2, Q86UT5; [2]",below the threshold
same,pKd,"FRMPD2_1, Q68DX3; [2]",below the threshold
same,pKd,"DLG1_2, Q12959; [2]",4.15
same,pKd,"LNX1_3, Q8TBB1; [2]",below the threshold
same,pKd,"SCRIB_3, Q14160; [2]",4.18
same,pKd,"GRIP1_7, Q9Y3R0; [2]",below the threshold
same,pKd,"PARD3_3, Q8TEW0; [2]",below the threshold
same,pKd,"MPDZ_12, O75970; [2]",3.78
same,pKd,"MAGI2_6, Q86UL8; [2]",4.02
B3,pKd,"DLG3_3, Q92796; [3]",4.42
same,pKd,"APBA1_2, Q02410; [3]",4.2
same,pKd,"PDZD2_2, O15018; [3]",5.1
same,pKd,"FRMPD4, Q14CM0; [3]",3.93
same,pKd,"SNTG2, Q9NY99; [3]",4.95
same,pKd,"AHNAK1, Q09666; [3]",below the threshold
same,pKd,"MAGI2_4, Q86UL8; [3]",below the threshold
same,pKd,"GRIP2_7, Q9C0E4; [3]",below the threshold
same,pKd,"LIN7B, Q9HAP6; [3]",4.09
same,pKd,"DLG4_2, P78352; [3]",4.96
same,pKd,"NHERF3_4, Q5T2W1; [3]",below the threshold
same,pKd,"NOS1, P29475; [3]",4.34
same,pKd,"PTPN13_1, Q12923; [3]",below the threshold
same,pKd,"GRIP1_4, Q9Y3R0; [3]",below the threshold
same,pKd,"MPP2, Q14168; [3]",below the threshold
same,pKd,"FRMPD2_2, Q68DX3; [3]",4.93
same,pKd,"GRID2IP_2, A4D2P6; [3]",3.98
same,pKd,"LIMK2, P53671; [3]",below the threshold
same,pKd,"NHERF4_2, Q86UT5; [3]",below the threshold
same,pKd,"FRMPD2_1, Q68DX3; [3]",below the threshold
same,pKd,"DLG1_2, Q12959; [3]",5.16
same,pKd,"LNX1_3, Q8TBB1; [3]",below the threshold
same,pKd,"SCRIB_3, Q14160; [3]",5.05
same,pKd,"GRIP1_7, Q9Y3R0; [3]",3.74
same,pKd,"PARD3_3, Q8TEW0; [3]",below the threshold
same,pKd,"MPDZ_12, O75970; [3]",below the threshold
same,pKd,"MAGI2_6, Q86UL8; [3]",4.63
B4,pKd,"DLG3_3, Q92796; [3]",3.88
same,pKd,"APBA1_2, Q02410; [3]",3.86
same,pKd,"PDZD2_2, O15018; [3]",4.33
same,pKd,"FRMPD4, Q14CM0; [3]",below the threshold
same,pKd,"SNTG2, Q9NY99; [3]",4.47
same,pKd,"AHNAK1, Q09666; [3]",3.6
same,pKd,"MAGI2_4, Q86UL8; [3]",3.99
same,pKd,"GRIP2_7, Q9C0E4; [3]",3.64
same,pKd,"LIN7B, Q9HAP6; [3]",below the threshold
same,pKd,"DLG4_2, P78352; [3]",5.44
same,pKd,"NHERF3_4, Q5T2W1; [3]",below the threshold
same,pKd,"NOS1, P29475; [3]",below the threshold
same,pKd,"PTPN13_1, Q12923; [3]",below the threshold
same,pKd,"GRIP1_4, Q9Y3R0; [3]",below the threshold
same,pKd,"MPP2, Q14168; [3]",below the threshold
same,pKd,"FRMPD2_2, Q68DX3; [3]",3.74
same,pKd,"GRID2IP_2, A4D2P6; [3]",3.57
same,pKd,"LIMK2, P53671; [3]",below the threshold
same,pKd,"NHERF4_2, Q86UT5; [3]",below the threshold
same,pKd,"FRMPD2_1, Q68DX3; [3]",3.79
same,pKd,"DLG1_2, Q12959; [3]",5.5
same,pKd,"LNX1_3, Q8TBB1; [3]",below the threshold
same,pKd,"SCRIB_3, Q14160; [3]",5.21
same,pKd,"GRIP1_7, Q9Y3R0; [3]",below the threshold
same,pKd,"PARD3_3, Q8TEW0; [3]",below the threshold
same,pKd,"MPDZ_12, O75970; [3]",below the threshold
same,pKd,"MAGI2_6, Q86UL8; [3]",4.55

# Source: PMC9482650, “Quantitative fragmentomics allow affinity mapping of interactomes” (Nature Communications, 2022)
